Results published in US20230212319A1, “NOVEL ANTIGEN BINDING DOMAINS AND SYNTHETIC ANTIGEN RECEPTORS INCORPORATING THE SAME” (University of Southern California, priority 2020, published 2023).

B1: 22046 (protein)
chain: MALPVTALLLPLALLLHAARPQLQLQESGPGLVKPSETLSLTCTVSGDSISSGDYYWGWIRQPPGKGLEWIGHIYYSGVTYYNPSLKSRVTISVDTSRNQFSLKLSSVTAADTAVYYCTREDSSNWRSRGQGTLVTVSSLESGGGGSFEEVQLLESGGGLVQPGGSLRLSCAASGFTFSSYAMSWVRQAPGKGLEWVSSISGSGDYIYYADSVKGRFTISRDISKNTLYLQMNSLRAEDTAVYYCAKEGTGANSSLADYRGQGTLVTVSSTRDKTHTCPPCPAIPEDTFFPSPESSCDVKLVEKSFETDTNLNFQNLSVIGFRILLLKVAGFNLLMTLRLWSSRAKRSGSGVKQTLNFDLLKLAGDVESNPGPSRGHMTEYKPTVRLATRDDVPRAVRTLAAAFADYPATRHTVDPDRHIERVTELQELFLTRVGLDIGKVWVADDGAAVAVWTTPESVEAGAVFAEIGPRMAELSGSRLAAQQQMEGLLAPHRPKEPAWFLATVGVSPDHQGKGLGSAVVLPGVEAAERAGVPAFLETSAPRNLPFYERLGFTVTADVEVPEGPRTWCMTRKPGA
B2: 22021 (protein)
chain: MALPVTALLLPLALLLHAARPQLQLQESGPGLVKPSETLSLTCTVSGDSISSGDYYWGWIRQPPGKGLEWIGHIYYSGVTYYNPSLKSRVTISVDTSRNQFSLKLSSVTAADTAVYYCTREDSSNWRSRGQGTLVTVSSLESGGGGSFEEVQLLESGGGLVQPGGSLRLSCAASGFTFSSYAMSWVRQAPGKGLEWVSSISGSGDYIYYADSVKGRFTISRDISKNTLYLQMNSLRAEDTAVYYCAKEGTGANSSLADYRGQGTLVTVSSTRIQNPDPAVYQLRDSKSSDKSVCLFTDFDSQTNVSQSKDSDVYITDKCVLDMRSMDFKSNSAVAWSNKSDFACANAFNNSIIPEDTFFPSPESSCDVKLVEKSFETDTNLNFQNLSVIGFRILLLKVAGFNLLMTLRLWSSRAKRSGSGVKQTLNFDLLKLAGDVESNPGPSRGHMTEYKPTVRLATRDDVPRAVRTLAAAFADYPATRHTVDPDRHIERVTELQELFLTRVGLDIGKVWVADDGAAVAVWTTPESVEAGAVFAEIGPRMAELSGSRLAAQQQMEGLLAPHRPKEPAWFLATVGVSPDHQGKGLGSAVVLPGVEAAERAGVPAFLETSAPRNLPFYERLGFTVTADVEVPEGPRTWCMTRKPGA
B3: 22035 (protein)
chain: MALPVTALLLPLALLLHAARPQLQLQESGPGLVKPSETLSLTCTVSGDSISSGDYYWGWIRQPPGKGLEWIGHIYYSGVTYYNPSLKSRVTISVDTSRNQFSLKLSSVTAADTAVYYCTREDSSNWRSRGQGTLVTVSSLDSGGGGSFEQLQLQESGPGLVKPSETLSLTCTVSGGSISSGDYYWGWIRQPPGKGLEWIGHIYYSGATYYNPSLKSRVTISVDTSRNQFSLKLSSVTAADTAVYYCTRDDSSNWRSRGQGTLVTVSSTRIQNPDPAVYQLRDSKSSDKSVCLFTDFDSQTNVSQSKDSDVYITDKTVLDMRSMDFKSNSAVAWSNKSDFACANAFNNSIIPEDTFFPSPESSCDVKLVEKSFETDTNLNFQNLSVIGFRILLLKVAGFNLLMTLRLWSSRAKRSGSGVKQTLNFDLLKLAGDVESNPGPSRGHMTEYKPTVRLATRDDVPRAVRTLAAAFADYPATRHTVDPDRHIERVTELQELFLTRVGLDIGKVWVADDGAAVAVWTTPESVEAGAVFAEIGPRMAELSGSRLAAQQQMEGLLAPHRPKEPAWFLATVGVSPDHQGKGLGSAVVLPGVEAAERAGVPAFLETSAPRNLPFYERLGFTVTADVEVPEGPRTWCMTRKPGA
B4: 22060 (protein)
chain: MALPVTALLLPLALLLHAARPQLQLQESGPGLVKPSETLSLTCTVSGDSISSGDYYWGWIRQPPGKGLEWIGHIYYSGVTYYNPSLKSRVTISVDTSRNQFSLKLSSVTAADTAVYYCTREDSSNWRSRGQGTLVTVSSLEGSGGGGSGGGGSGEDLKNVFPPEVAVFEPSEAEISHTQKATLVCLATGFYPDHVELSWWVNGKEVHSGVCTDPQPLKEQPALNDSRYCLSSRLRVSATFWQNPRNHFRCQVQFYGLSENDEWTQDRAKPVTQIVSAEAWGRADCGFTSESYQQGVLSATILYEILLGKATLYAVLVSALVLMAMVKRKDSRGRAKRSGSGATNFSLLKQAGDVEENPGPTSMDWIWRILFLVGAATGAHSFEVQLLESGGGLIQPGGSLRLSCAASGFTFSSHAMTWVRQAPGKGLEWVSAISGSGDYTHYADSVKGRFTISRDNSKNTVYLQMNSLRAEDSAVYYCAKDEDGGSLLGHRGQGTLVTVSSTRIQNPDPAVYQLRDSKSSDKSVCLFTDFDSQTNVSQSKDSDVYITDKCVLDMRSMDFKSNSAVAWSNKSDFACANAFNNSIIPEDTFFPSPESSCDVKLVEKSFETDTNLNFQNLSVIGFRILLLKVAGFNLLMTLRLWSSRAKRSGSGVKQTLNFDLLKLAGDVESNPGPSRGHMTEYKPTVRLATRDDVPRAVRTLAAAFADYPATRHTVDPDRHIERVTELQELFLTRVGLDIGKVWVADDGAAVAVWTTPESVEAGAVFAEIGPRMAELSGSRLAAQQQMEGLLAPHRPKEPAWFLATVGVSPDHQGKGLGSAVVLPGVEAAERAGVPAFLETSAPRNLPFYERLGFTVTADVEVPEGPRTWCMTRKPGA

What follows are molecules tested on RAJI cells (assay: JNG assay, co-culture with RAJI cells). Conditions: JNG cells expressing construct, co-culture with Raji.
Format: cell-based
How it was run: (§1)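 Read-out is NFAT-driven GFP measured by flow cytometry after ~4–18 h co-culture of SAR-expressing JNG cells with target cells (E:T about 1:2). SARs were introduced by lentiviral spinfection and selected with puromycin or blasticidin when possible; scores (+/- to 5+ ≈ 5–50% GFP+) are relative to parental JNG cells.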

Molecule	NFAT-GFP ASSAY: Raji
B1	2+ (refer to approximately 5%, 10%, 20%, 30%, 40% and 50% GFP positive cells)
B2	Raji (+/-), Nalm6 (+/-), L363 (+/-) (refer to approximately 5%, 10%, 20%, 30%, 40% and 50% GFP positive cells)
B3	Raji (+/-), Nalm6 (+/-), L363 (+/-) (refer to approximately 5%, 10%, 20%, 30%, 40% and 50% GFP positive cells)
B4	2+ (refer to approximately 5%, 10%, 20%, 30%, 40% and 50% GFP positive cells)

Each molecule was assayed on L363 cells (assay: JNG assay, co-culture with L363 cells). Conditions: co-culture with L363.
Format: cell-based
How it was run: as §1

Molecule	NFAT-GFP ASSAY: L363
B1	+ (refer to approximately 5%, 10%, 20%, 30%, 40% and 50% GFP positive cells)
B2	Raji (+/-), Nalm6 (+/-), L363 (+/-) (refer to approximately 5%, 10%, 20%, 30%, 40% and 50% GFP positive cells)
B3	Raji (+/-), Nalm6 (+/-), L363 (+/-) (refer to approximately 5%, 10%, 20%, 30%, 40% and 50% GFP positive cells)
B4	2+ (refer to approximately 5%, 10%, 20%, 30%, 40% and 50% GFP positive cells)

What follows are molecules tested on Nalm6 cells (assay: JNG assay, co-culture with Nalm6 cells). Conditions: co-culture with Nalm6.
Format: cell-based
How it was run: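 NFAT-driven GFP in stably SAR-transduced Jurkat cells after coculture (E:T ~1:2; ~4–18 h), measured by flow cytometry and expressed as % GFP+ cells over parental Jurkat-NFAT-GFP cells.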

Molecule	NFAT-GFP ASSAY: Nalm6
B1	+/- (refer to approximately 5%, 10%, 20%, 30%, 40% and 50% GFP positive cells)
B2	Raji (+/-), Nalm6 (+/-), L363 (+/-) (refer to approximately 5%, 10%, 20%, 30%, 40% and 50% GFP positive cells)
B3	Raji (+/-), Nalm6 (+/-), L363 (+/-) (refer to approximately 5%, 10%, 20%, 30%, 40% and 50% GFP positive cells)
B4	+/- (refer to approximately 5%, 10%, 20%, 30%, 40% and 50% GFP positive cells)
